# Molecular target: bHLH protein EGL3 from Arabidopsis (Arabidopsis) (UniProt Q9CAD0)
# Assay: cell-based or functional assay
# UniProt Q9CAD0, sequence (Q9CAD0 whole entry): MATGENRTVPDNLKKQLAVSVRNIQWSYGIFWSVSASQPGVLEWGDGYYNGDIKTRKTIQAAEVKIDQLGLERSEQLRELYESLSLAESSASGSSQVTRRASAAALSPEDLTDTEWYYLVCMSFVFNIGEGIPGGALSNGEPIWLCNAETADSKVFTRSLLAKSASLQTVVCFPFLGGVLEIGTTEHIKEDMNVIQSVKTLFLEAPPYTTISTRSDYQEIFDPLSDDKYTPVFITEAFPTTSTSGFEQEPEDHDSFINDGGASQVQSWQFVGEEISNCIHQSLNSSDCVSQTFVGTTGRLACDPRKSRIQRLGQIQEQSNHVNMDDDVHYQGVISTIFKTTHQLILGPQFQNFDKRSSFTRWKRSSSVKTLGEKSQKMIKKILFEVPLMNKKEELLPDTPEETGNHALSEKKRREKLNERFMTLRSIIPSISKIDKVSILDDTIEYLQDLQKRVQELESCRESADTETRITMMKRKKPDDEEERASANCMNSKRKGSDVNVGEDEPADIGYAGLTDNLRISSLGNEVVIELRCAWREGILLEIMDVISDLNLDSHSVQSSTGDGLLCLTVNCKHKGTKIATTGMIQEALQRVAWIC
substance,measurement,value
VvMYBPA1,"induction of the VvLDOX promoter, dual-luciferase transient assay in grape cells (fold over control without MYB factor)",125 fold

# — US20100064383A1
